Measured values reported in paper PMC5364489, “Isolation and characterization of the E. coli membrane protein production strain Mutant56(DE3)”.

Target: wild-type T7 RNA polymerase (Enterobacteria phage T7 (gene from E. …, UniProt P00573 1-883))
Test: EMSA; 2.5 uM dsDNA; half-saturation compared only in figure, not a true Kd; 50 mM Tris acetate, 10 mM magnesium acetate, 50 mM sodium acetate (pH not stated), 25 °C, 30 min; 1.5% TAE agarose gel
Details: protein: recombinant; label: 5' ATTO488 on strand 1; blunt

Chain of wild-type T7 RNA polymerase (Enterobacteria phage T7 (P00573 whole entry): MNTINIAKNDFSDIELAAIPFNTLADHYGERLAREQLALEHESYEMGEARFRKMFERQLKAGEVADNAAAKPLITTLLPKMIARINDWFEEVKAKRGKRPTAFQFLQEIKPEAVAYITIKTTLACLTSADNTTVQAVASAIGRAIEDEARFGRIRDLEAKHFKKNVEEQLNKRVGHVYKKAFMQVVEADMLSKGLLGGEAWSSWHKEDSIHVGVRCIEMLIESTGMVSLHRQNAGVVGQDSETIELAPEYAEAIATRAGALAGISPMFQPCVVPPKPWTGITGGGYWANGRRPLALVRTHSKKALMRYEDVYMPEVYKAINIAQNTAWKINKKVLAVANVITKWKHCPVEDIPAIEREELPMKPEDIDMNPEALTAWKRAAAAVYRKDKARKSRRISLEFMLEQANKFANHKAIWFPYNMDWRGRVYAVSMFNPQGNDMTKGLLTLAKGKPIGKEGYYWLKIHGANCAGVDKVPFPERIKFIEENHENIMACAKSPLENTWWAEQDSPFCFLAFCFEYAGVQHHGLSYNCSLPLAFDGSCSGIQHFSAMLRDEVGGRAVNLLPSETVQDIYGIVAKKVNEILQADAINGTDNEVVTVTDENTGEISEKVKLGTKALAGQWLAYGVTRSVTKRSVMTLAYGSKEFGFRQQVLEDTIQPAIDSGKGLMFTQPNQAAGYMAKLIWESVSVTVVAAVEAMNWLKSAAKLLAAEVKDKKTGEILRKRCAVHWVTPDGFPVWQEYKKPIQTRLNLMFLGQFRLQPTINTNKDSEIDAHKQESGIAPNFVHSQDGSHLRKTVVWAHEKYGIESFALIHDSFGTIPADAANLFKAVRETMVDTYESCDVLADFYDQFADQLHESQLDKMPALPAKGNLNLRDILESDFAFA

B1: T7 promoter dsDNA (dsDNA)
DNA 1: GCCAGTAATACGACTCACTATAGGG
DNA 2: CCCTATAGTGAGTCGTATTACTGGC
  binding result: binds
